Assay results as given in patent US20220193132A1 (NATIONAL RESEARCH COUNCIL OF CANADA, published 2022).

How the values were obtained:
[1] = target: T1, EGFRvIII, full length, overexpressed on glioblastoma cells (human, UniProt P00533 298-623); assay: flow cytometry dose-response on U87MG-EGFRvIII cells, apparent Kd
T1 construct: Cells overexpress full length EGFRvIII (deletion of exons 2-7 of EGFR); Cell line (U87MG or DKMG) is named under assay; also called U87MG-EGFRvIII; U87vIII
Description: (§1) Prior to analysis, cells were plated such that they were not more than 80% confluent on the day of analysis. Unless otherwise stated, all media are kept are 4° C. and all incubations are performed on wet ice. Cells were washed in PBS, harvested by the addition of cell dissociation buffer (Sigma), centrifuged and resuspended in complete medium at a cell density of 2×10⁶ cells/mL. Fifty μL/well of cells were distributed in a polypropylene v-bottom 96 well plate and serial 1/3 dilutions of purified mAbs starting at 100 nM were added and incubated for 2 hours. […] Cells were washed and re-suspended in medium containing Propidium iodide to exclude dead cells from analysis. Samples were filtered through a 60 μm nylon mesh filter plate (Millipore, Ireland) to remove cell aggregates. Flow cytometry analyses were performed on 2,000 viable single-cells events gated on forward scattering, side scattering parameters and propidium iodide dye exclusion using a BD-LSRFortessa flow cytometer (Becton-Dickinson Biosciences, CA, USA) and a standard filter set using BD FACSDiva™ acquisition software, according to manufacturer's instructions.
(§2) Specific detection of antibody binding was calculated as the mean fluorescent intensity of binding to each primary antibody after background level subtraction of the mean fluorescent intensity of binding of mouse IgG control. The data were analyzed with GraphPad Prism v 6.0 software using one-site specific binding with Hill slope non-linear regression curve fit model to determine Bmax (maximum specific binding) and Kdₐₚₚ (concentration needed to achieve a half-maximum binding at equilibrium) for each mAb tested.

[2] = target: T2, wild type human EGFR, full length, overexpressed on U87MG cells (human, UniProt P00533 25-1210); assay: cell-based or functional assay
[3] = target: T1, EGFRvIII, full length, overexpressed on …; assay: cell-based or functional assay
[4] = target: T3, recombinant human EGFRvIII protein (extracellular domain), denatured (human, UniProt P00533 298-623); assay: ELISA Exp 1, mAb supernatant
T3 construct: Same protein as m21 after 95 C for 5 min in PBS with 40 mM DTT (denatured, reduced); also called EGFRvIII Denatured
Description: (§3) Pre- and post-immune sera titers of animals were assessed by ELISA on recombinant EGFRvIII protein. Unless otherwise stated, all incubations were performed at room temperature. […] Microplates were washed three times in PBS and blocked for 30 min with PBS containing 1% bovine serum albumin (BSA, Sigma Cat #A7030). Blocking buffer was removed and 25 μl of serial dilutions of sera samples were added. […] After a 1-h incubation, microplates were washed 4 times and 25 μl of p-nitrophenyl phosphate (pNPP) substrate (Sigma-Aldrich Canada Co., Oakville, ON) at 1 mg/ml in carbonate buffer at pH 9.6 was added and further incubated for 30 min.
(§4) Antigens at 1-2 mg/ml were incubated at 95° C. for 5 min in PBS containing DTT at a final concentration of 40 mM. They were then incubated on ice for 5 min and diluted at their final coating concentration for ELISA purpose.
(§5) ELISA was performed as described above (serum titer determination) using 25 μl of mAb supernatant (Exp 1) or purified mAb at 1 μg/ml (Exp 2).

[5] = target: T4, recombinant human EGFRvIII protein (extracellular domain), native (human, UniProt P00533 298-623); assay: ELISA Exp 1, mAb supernatant
T4 construct: also called hEGFRvIII
Description: as §3, §4, §5

[6] = target: T5, recombinant human wild type EGFR protein (extracellular domain), native (human, UniProt P00533 25-645); assay: ELISA Exp 1, mAb supernatant
T5 construct: also called wt EGFR; EGFR WT
Description: as §3, §4, §5

[7] = target: T6, recombinant human wild type EGFR protein (extracellular domain), denatured (human, UniProt P00533 25-645); assay: ELISA Exp 1, mAb supernatant
T6 construct: Same protein as m23 after 95 C for 5 min in PBS with 40 mM DTT (denatured, reduced); also called wt EGFR Denatured
Description: as §3, §4, §5

[8] = target: T3, recombinant human EGFRvIII protein …; assay: ELISA Exp 2, purified mAb 1 ug/ml;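 note: ELISA of purified mAb binding to plate-coated antigen, native or heat/DTT-denatured, with pNPP substrate developed for 30 min and incubations at room temperature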
Description: as §3, §4, §5

[9] = target: T4, recombinant human EGFRvIII protein …; assay: ELISA Exp 2, purified mAb 1 ug/ml;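 note: ELISA of purified mAb binding to plate-coated antigen, native or heat/DTT-denatured, with pNPP substrate developed for 30 min and incubations at room temperature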
Description: as §3, §4, §5

[10] = target: T5, recombinant human wild type EGFR …; assay: ELISA Exp 2, purified mAb 1 ug/ml;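 note: ELISA of purified mAb binding to plate-coated antigen, native or heat/DTT-denatured, with pNPP substrate developed for 30 min and incubations at room temperature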
Description: as §3, §4, §5

[11] = target: T6, recombinant human wild type EGFR …; assay: ELISA Exp 2, purified mAb 1 ug/ml;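 note: ELISA of purified mAb binding to plate-coated antigen, native or heat/DTT-denatured, with pNPP substrate developed for 30 min and incubations at room temperature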
Description: as §3, §4, §5

[12] = target: T7, EGFRvIII fragment amino acid residues 1 to 18, displayed on yeast (human); assay: yeast surface display, flow cytometry
T7 construct: also called aa 1-18
T7 peptide: LEEKKGNYVVTDHGSCVR

[13] = target: T2, wild type human EGFR, full length, …; assay: flow cytometry dose-response, U87MG-EGFRwt cells
Description: as §1, §2

[14] = target: T2, wild type human EGFR, full length, …; assay: cell-based or functional assay; remark: listed apart in the source
[15] = target: T1, EGFRvIII, full length, overexpressed on …; assay: cell-based or functional assay; remark: listed apart in the source
[16] = target: T8, EGFRvIII fragment amino acid residues 3 to 18, displayed on yeast (human); assay: yeast surface display, flow cytometry
T8 construct: also called aa 3-18
T8 peptide: EKKGNYVVTDHGSCVR

[17] = target: T1, EGFRvIII, full length, overexpressed on …; assay: cell-based or functional assay; remark: listed apart in the source
[18] = target: T2, wild type human EGFR, full length, …; assay: flow cytometry dose-response, U87MG EGFR wt cells
Description: as §1, §2

[19] = target: T1, EGFRvIII, full length, overexpressed on …; assay: flow cytometry dose-response on DKMG EGFRvIII cells, apparent Kd (n=1)
Description: as §1
(§6) These cells were grown in RPMI and 10% fetal bovine serum using standard culturing conditions.

[20] = target: T1, EGFRvIII, full length, overexpressed on …; assay: flow cytometry dose-response on U87MG EGFRvIII cells, apparent Kd (n=2)
Description: as §1, §6

[21] = target: T1, EGFRvIII, full length, overexpressed on …; assay: flow cytometry dose-response on DKMG EGFRvIII cells (n=1)
Description: as §1, §6

B1: F266-11C8 (antibody, V domains shown)
VH: QIQLVQSGPELKKPGETVKISCKASGYTFTTAGMQWVQKMPGKGFKWIGWINTHSGDPKYAEDFKGRFAFSLETYASTAYLQISNLKNEDTASYFCARTHIYDGYNYAMDYWGQGTSVTVSS
VL: DVVMTQTPLSLPVSLGDQASISCRSSQSLVYSNGNTYLHWYLQKPGQSPKLLIYKVSNRFSGVPDRFSGSGSGTDFTLKISRVEAEDLGVYFCSQSTHVPFTFGSGTKLEIK
notes: Mouse hybridoma mAb; also called 11H5 (11C8)
Kd [1]: 3.5 nM
% internalization (pHrodo surrogate assay, vs 225 mAb) [2]: < 2%
% internalization (pHrodo surrogate assay, vs 225 mAb) [3]: 136%
ELISA absorbance 405 nm [4]: 2.1 A405
ELISA absorbance 405 nm [5]: 1.56 A405
ELISA absorbance 405 nm [6]: 0.011 A405
ELISA absorbance 405 nm [7]: 0.009 A405
ELISA absorbance 405 nm [8]: 1.71 A405
ELISA absorbance 405 nm [9]: 1.72 A405
ELISA absorbance 405 nm [10]: 0 A405
ELISA absorbance 405 nm [11]: -0.001 A405
binding result [12]: binds
binding result [13]: no binding (tested: 100 nM highest concentration)
% survival (DM1 secondary-conjugate ADC surrogate assay, vs mouse IgG) [14]: > 98%
% survival (DM1 secondary-conjugate ADC surrogate assay, vs mouse IgG) [15]: 55%

B2: F266-11B1 (antibody, V domains shown)
VH: QIQLVQSGPELKKPGETVKISCKASGYTFTTAGMQWVKKMPGKGFKWIGWINTHSGDPKYAEDFKGRFAFSLETYASTAYLQISNLKNEDTASYFCARTHIYDGYNYAMDYWGQGTSVTVSS
VL: DVVMTQTPLSLPVSLGDQASISCRSSQSLVYSNGNTYLHWYLQKPGQSPKLLIYKVSNRFSGVPDRFSGSGSGTDFTLKISRVEAEDLGVYFCSQSTHVPFTFGSGTKLEIK
notes: Mouse hybridoma mAb
Kd [1]: 2.2 nM
% internalization (pHrodo surrogate assay, vs 225 mAb) [2]: < 2%
% internalization (pHrodo surrogate assay, vs 225 mAb) [3]: 131%
ELISA absorbance 405 nm [4]: 2.2 A405
ELISA absorbance 405 nm [5]: 1.67 A405
ELISA absorbance 405 nm [6]: 0.034 A405
ELISA absorbance 405 nm [7]: 0.032 A405
ELISA absorbance 405 nm [8]: 1.77 A405
ELISA absorbance 405 nm [9]: 1.72 A405
ELISA absorbance 405 nm [10]: 0.002 A405
ELISA absorbance 405 nm [11]: 0.004 A405
binding result [12]: binds
binding result [13]: no binding (tested: 100 nM highest concentration)
% survival (DM1 secondary-conjugate ADC surrogate assay, vs mouse IgG) [14]: > 98%
% survival (DM1 secondary-conjugate ADC surrogate assay, vs mouse IgG) [15]: 62%

B3: F266-11H3 (antibody, V domains shown)
VH: QIQLVQSGPELKKPGETVKISCKASGYTFTTAGMQWVQKMPGKGFKWIGWINTHSGDPKYAEDFKGRFAFSLETYASTAYLQISNLKNEDTATYFCARTHIYDGYNYAMDYWGQGTSVTVSS
VL: DVVMTQTPLSLPVSLGDQASISCRSSQSLVYSNGNTYLHWYLQKPGQSPKLLIYKVSNRFSGVPDRFSGSGSGTDFTLKISRVEAEDLGVYFCSQSTHVPFTFGSGTKLEIK
notes: Mouse hybridoma mAb
Kd [1]: 2.5 nM
% internalization (pHrodo surrogate assay, vs 225 mAb) [2]: < 2%
% internalization (pHrodo surrogate assay, vs 225 mAb) [3]: 131%
ELISA absorbance 405 nm [4]: 2.1 A405
ELISA absorbance 405 nm [5]: 1.66 A405
ELISA absorbance 405 nm [6]: 0.053 A405
ELISA absorbance 405 nm [7]: 0.041 A405
ELISA absorbance 405 nm [8]: 1.79 A405
ELISA absorbance 405 nm [9]: 1.78 A405
ELISA absorbance 405 nm [10]: 0.001 A405
ELISA absorbance 405 nm [11]: 0 A405
binding result [12]: binds
binding result [13]: no binding (tested: 100 nM highest concentration)
% survival (DM1 secondary-conjugate ADC surrogate assay, vs mouse IgG) [14]: > 98%
% survival (DM1 secondary-conjugate ADC surrogate assay, vs mouse IgG) [15]: 62%

B4: F263-1A8 (antibody, V domains shown)
VH: EVQLQQSGAELVRPGALVKLSCKASGFNIKDYYMHWVKQRPEQGLEWIGWIDPENGNTIYDPKFQGKATITADTSSNTAYLQLSSLASEDTAVYYCARGWLLLWGQGTTLTVSS
VL: not shown
notes: Mouse hybridoma mAb
Kd [1]: 2 nM
% internalization (pHrodo surrogate assay, vs 225 mAb) [2]: < 2%
% internalization (pHrodo surrogate assay, vs 225 mAb) [3]: 100%
ELISA absorbance 405 nm [4]: 2.09 A405
ELISA absorbance 405 nm [5]: 1.67 A405
ELISA absorbance 405 nm [6]: 0.016 A405
ELISA absorbance 405 nm [7]: 0.013 A405
ELISA absorbance 405 nm [8]: 1.71 A405
ELISA absorbance 405 nm [9]: 1.79 A405
ELISA absorbance 405 nm [10]: 0.002 A405
ELISA absorbance 405 nm [11]: 0.001 A405
binding result [16]: binds
binding result [13]: no binding (tested: 100 nM highest concentration)
% survival (DM1 secondary-conjugate ADC surrogate assay, vs mouse IgG) [14]: > 98%
% survival (DM1 secondary-conjugate ADC surrogate assay, vs mouse IgG) [15]: 65%

B5: hFc-13.1.2-MMAE (antibody, human IgG1, kappa, V domains shown)
VH: QVQLVESGGGVVQPGRSLRLSCAASGFTFSSYGMHWVRQAPGKGLEWVAVIWYDGSNKYYVDSVKGRFTISRDNSKNTLYLQMNSLRAEDTAVYYCARDGWQQLAPFDYWGQGTLVTVSS
VL: not shown
modifications: MC-vc-PAB-MMAE on reduced interchain cysteines
IC50 of growth inhibition, DKMG EGFRvIII cells [17]: 2.5 nM
IC50 of growth inhibition, U87MG EGFRvIII cells [17]: 1.9 nM

B6: hFc-13.1.2 (antibody, human IgG1, kappa, V domains shown)
VH: QVQLVESGGGVVQPGRSLRLSCAASGFTFSSYGMHWVRQAPGKGLEWVAVIWYDGSNKYYVDSVKGRFTISRDNSKNTLYLQMNSLRAEDTAVYYCARDGWQQLAPFDYWGQGTLVTVSS
VL: not shown
binding result [18]: no binding
Kd [19]: 0.947 nM
Kd [20]: 5.22 nM
Bmax [21]: 16500
binding result [12]: binds

B7: F260-5G6 (antibody, V domains shown)
VH: EVQLQQSGAELARPGASVKMSCKASGYTFTSYWMHWVKQRPGQGLEWIGAIYPGNSDISYNQKFKGKAKLTAVTSATTAYMELSSLTNEDSAVYYCTLYDYDPDYWGQGTTLTVSS
VL: not shown
notes: Mouse hybridoma mAb
Kd [1]: 4.2 nM
% internalization (pHrodo surrogate assay, vs 225 mAb) [2]: < 2%
% internalization (pHrodo surrogate assay, vs 225 mAb) [3]: 102%
ELISA absorbance 405 nm [4]: 1.94 A405
ELISA absorbance 405 nm [5]: 1.45 A405
ELISA absorbance 405 nm [6]: 0 A405
ELISA absorbance 405 nm [7]: 0.005 A405
ELISA absorbance 405 nm [8]: 1.74 A405
ELISA absorbance 405 nm [9]: 1.74 A405
ELISA absorbance 405 nm [10]: 0.001 A405
ELISA absorbance 405 nm [11]: 0 A405
binding result [16]: binds
binding result [13]: no binding (tested: 100 nM highest concentration)
% survival (DM1 secondary-conjugate ADC surrogate assay, vs mouse IgG) [14]: 91%
% survival (DM1 secondary-conjugate ADC surrogate assay, vs mouse IgG) [15]: 55%

B8: hFc-5G6-MMAE (antibody, human IgG1, kappa, V domains shown)
VH: EVQLQQSGAELARPGASVKMSCKASGYTFTSYWMHWVKQRPGQGLEWIGAIYPGNSDISYNQKFKGKAKLTAVTSATTAYMELSSLTNEDSAVYYCTLYDYDPDYWGQGTTLTVSS
VL: not shown
modifications: MC-vc-PAB-MMAE on reduced interchain cysteines
IC50 of growth inhibition, DKMG EGFRvIII cells [17]: 0.3 nM
IC50 of growth inhibition, U87MG EGFRvIII cells [17]: 0.3 nM

B9: hFc-5G6 (antibody, human IgG1, kappa, V domains shown)
VH: EVQLQQSGAELARPGASVKMSCKASGYTFTSYWMHWVKQRPGQGLEWIGAIYPGNSDISYNQKFKGKAKLTAVTSATTAYMELSSLTNEDSAVYYCTLYDYDPDYWGQGTTLTVSS
VL: not shown
notes: Chimeric antibody, mouse variable regions on human IgG1 / human kappa, produced in CHO cells; also called chimeric 5G6
binding result [18]: no binding
Kd [19]: 0.832 nM
Kd [20]: 1.53 nM
Bmax [21]: 16900

B10: hFc-4E11-MMAE (antibody, human IgG1, kappa, V domains shown)
VH: DVQLQESGPGLVKPSQSLSLTCTVTGYSITSDYAWNWIRQFPGNKLEWMGYIGYNGRTSYNPSLKSRISITRDTSKNQFFLQLNYVTTEDTATFYCARLGRGFAYWGQGTLVTVSA
VL: DILMTQSPSSMSVSLGDTVSITCHASQGINSNIGWLLQKPGKSFKGLIYHGTNLEDGVPSRFSGSGSGTDYSLTISSLESEDFADYYCVQYAQFPYTFGGGTKLEIKR
modifications: MC-vc-PAB-MMAE on reduced interchain cysteines
IC50 of growth inhibition, U87MG EGFRvIII cells [17]: 0.2 nM
